Data from US20150232562A1 (Ablynx, published 2015).

molecular target: T1, recombinant human ErbB2/Fc chimera (human, UniProt P04626 23-652); assay: ELISA, coated ErbB2/Fc
T1 construct: bought from R&D Systems; also called rhErbB2-Fc; rhErb2-Fc; Fc part of the bought chimera not given; not described

Row | Binder | binding result
1 | 13A4 (VHH, C-term myc-His6 tag) VHH: EVQLVESGGGLVQAGGSLRLSCVASKMTFMRYTMGWYRQAPGKQRDLVASIDSSGGTNYADSVKGRFTISRDNAKNTVYLEMNSLKPEDTGVYYCNGRWDIVGAIWWGQGTQVTVSS | binds
2 | 27H4 (VHH, C-term myc-His6 tag) VHH: EVQLVESGGGLVQAGGSLRLSCVASKMTFMRYTMGWYRQAPGKQRDLVASIDASGGTNYADSVKGRFTISRDNAKNTVYLEMNSLKPEDTGVYYCNGRWDIVGAIWWGQGTQVTVSS | binds
3 | 17C3 (VHH, C-term myc-His6 tag) VHH: EVQLVESGGGLVQAGGSLRLSCAANGLTFRRYDMGWYRQAPGQQREWVAAISGAGDINYADSVKGRFTMARDNANHTVHLQMNSLKPEDTAVYYCNANWKMLLGVENDYWGQGTQVTVSS | binds
4 | 13D7 (VHH, C-term myc-His6 tag) VHH: EVQLVESGGGLVQAGGSLRLSCAANGLTFRRYDMGWYRQAPGQQREWVAAISGAGDINYADSVKGRFTMARDNANHTVHLQMNSLKPEDTAVYYCNANWKMLLGVENDYWGQGTQVTVSS | binds
5 | 27G5 (VHH, C-term myc-His6 tag) VHH: EVQLVESGGGLVQPGGSLRLSCVASRIPASIRTMAWYRQTPGNQRDWLATIGSSGTPAYADSVKGRFTVSRDNAKNTVYLQMNSLKPEDTAVYYCRDVNGDYWGQGTQVTVSS | binds
6 | 29E9 (VHH, C-term myc-His6 tag) VHH: EVQLVESGGGLVQPGGSLRLSCVASRIPASIRTMAWYRQTPGNQRDWLATIGSSGTPAYADSVKGRFTVSRDNAKNTVYLQMNSLKPEDTAVYYCRDVNGDYWGQGTQVTVSS | binds
7 | 13A9 (VHH, C-term myc-His6 tag) VHH: EVQLVESGGGLVQAGGSLRLSCVASRIPASIRTMAWYRQAPGKQRDWVATIGTGGTPAYADSFKGRFTVSRDNANHTVYLQMNSLKPEDTAVYYCRDVNGDYWGQGTQVTVSS | binds
8 | 15D8 (VHH, C-term myc-His6 tag) VHH: EVQLVESGGGLVQPGGSLKLSCVASTIPASIRTMAWYRQTPGNQRDWLATIGSSGTPAYADSVKGRFTVSRDNAKNTVYLQMNSLKPEDTAVYYCRDVNGDYWGQGTQVTVSS | binds
9 | 27A5 (VHH, C-term myc-His6 tag) VHH: EVQLVESGGGLVQAGGSLNLSCVASGIPFSTRTMAWYRQPPGNERDWVATIRSGAPVYADSVKGRFTVSRDNAKNTLYLQMNSLEPEDTATYYCWDVNGDIWGQGTPVTVSS | binds
10 | 15G4 (VHH, C-term myc-His6 tag) VHH: EVQLVESGGGLVQAGGSLRLSCVASGIPFRSRTMAWYRQAPGKTRDWVATIGTHGTPLYADSVKGRFTVSRDNAKNTLYLQMNSLKPEDTAVYYCWDVNGDYWGQGTQVTVSS | binds
11 | 15A6 (VHH, C-term myc-His6 tag) VHH: EVQLVESGGGLVQAGGSLRLSCVTSRRPASTRTMAWYRQAPGKQRDWVATISSHGLPVYADSVKGRFTVSRDNANNTVYLQMNTLKPEDTAVYYCRDVNADYWGQGTQVTVSS | binds
12 | 15C2 (VHH, C-term myc-His6 tag) VHH: EVQLVESGGGLVQAGGSLRLSCVTSRRPASTRTMAWYRQAQGKQRDWVATISSHGLPVYADSVKGRFTVSRDNANNTVYLQMNTLKPEDTAVYYCRDVNADYWGQGTQVTVSS | binds
13 | 17C5 (VHH, C-term myc-His6 tag) VHH: EVQLVESGGGLVQAGGSLRLSCVTSRRPASTRTMAWYRQAPGKQRDWVATISSHGLPVYADSVKGRFTVSRDNANNTVYLQMNTLKPEDTAVYYCRDVNADYWGQGTPVTVSS | binds
14 | 14A1 (VHH, C-term myc-His6 tag) VHH: EVQLVESGGGSVQAGGSLRLSCAASERTFSSYGMGWFRQAPGKEREFVATINWSGVTAYADSVKGRFTISRDNAKKTVYLQMNSLKPEDTAVYYCAAEPYGSGSSLMSEYDYWGHGTQVTVSS | binds
15 | 14C11 (VHH, C-term myc-His6 tag) VHH: EVQLVESGGGLVQAGGSLRLSCAVNSRTFSSYGMGWFRQAPGKEREFVATINWSGATAYADSIKGRFTISRDNAKETVYLQMNSLKPDDTGVYYCAAETYGSGSSLMSEYDYWGQGTQVTVSS | binds
16 | 14B10 (VHH, C-term myc-His6 tag) VHH: EVQLVESGGGLVQAGGSLRLSCAVNSRTFSSYGMGWFRQAPGKEREFVATINWSGVTAYADSIKGRFTISRDNAKETVYLQMNSLKPDDTGVYYCAAETYGSGSSLMSEYDYWGQGTQVTVSS | binds
17 | 14C6 (VHH, C-term myc-His6 tag) VHH: EVQLVESGGGSVQAGGSLRLSCVASEGTFSSYGMGWFRQAPGKERAFVATINWSGVTAYADSVKGRFTISRDNAKKTVYLQMNSLKPEDTAVYYCATDTYGSGSSLMNEYDYWGQGTQVTVSS | binds

Row | Binder | binding result
18 | 14A4 (VHH, C-term myc-His6 tag) VHH: EVQLVESGGGSVQAGSSLTLSCVASEGTFSSYGMGWFRQAPGKERAFVATINWSGVNAYADSVKGRFTISRDNAKKTAYLQMNSLKPEDTAVYYCAAETYGSGSSLMNEYDYWGQGTQVTVSS | binds
19 | 14B3 (VHH, C-term myc-His6 tag) VHH: EVQLVESGGGLVQPGGSLTLSCVASEGTFSSYGMGWFRQAPGKERAFVATINWSGVNAYADSVKGRFTISRDNAKKTAYLQMNSLKPEDTAVYYCAAETYGSGSSLMNEYDYWGQGTQVTVSS | binds
20 | 14A12 (VHH, C-term myc-His6 tag) VHH: EVQLVKSGGGLVQAGGSLRLSCAASERTFSSYGMGWFRQAPGKEREFVATINWSGVTAYADSVKGRFTISRDNAKKTVYLQMNSLKPEDTAVYYCAAEPYGSGSSLISEYDYWGHGTQVTVSS | binds
21 | 14C1 (VHH, C-term myc-His6 tag) VHH: EVQLVESGGGSVQAGGSLRLSCAASGSTFSSYGMGWFRQAPGKERAFVATINWSGVTAYADSVKGRFTISRDNAKKTVYLQMNSLKPEDTAVYYCATETYGSGSSLMNEYDYWGQGTQVTVSS | binds
22 | 14A2 (VHH, C-term myc-His6 tag) VHH: EVQLVESGGGLVQAGGSLRLSCAASERTFSSYGMGWFRQAPGKEREFVATINWSGVTAYADSVKGRFTISRDNAKKTVYLQMNSLKPEDTAVYYCAAEPYGSGSSLISEYDYWGHGTQVTVSS | binds
23 | 14B11 (VHH, C-term myc-His6 tag) VHH: EVQLVESGGGLVQAGGSLRLSCAASGSTFSSYGMGWFRQVPGKEREFVATINWSGVTAYADSVKGRFTISRDNAKKTVYLQMNSLKPEDTARYYCGVETYGSGSSLMTEYDYWGQGTQVTVSS | binds
24 | 14B4 (VHH, C-term myc-His6 tag) VHH: EVQLVESGGGLVQAGGSLRLSCAVSSRAFSSYGMGWFRQAPGKDREFVATINWSGVTAYADSIKGRFTISRDNAKETVYLQMNSLKPEDTGVYYCAAETYGSGSSLMSEYDYWGQGTQVTVSS | binds
25 | 15D12 (VHH, C-term myc-His6 tag) VHH: EVQLVESGGGLVQAGESLRLSCATSGITFKRYVMGWYRQGPGKQRELVATVNDGGTTSYADSVKGRFAISRDNAKNTAYLQMNSLKAEDTAVYYCNAVWKLPRFVDNDYWGQGTQVTVSS | binds
26 | 46D3 (VHH, C-term myc-His6 tag) VHH: KVQLVESGGGLVQAGGSLRLSCAASGRTFTEYSMGWFRQAPGKEREFVATISWNYGYTYYSDSVKGRFTVSRDIAENTVYLQMNTLKSEDTAVYYCAAKIGWLSIRGDEYEYWGQGTQVTVSS | binds
27 | 13A8 (VHH, C-term myc-His6 tag) VHH: EVQLVESGGGLVQPGGSLRLSCAASGLGIAFSRRTMAWYRQAPGKQRDWVATIAGDGSTVYADSMKGRFTISRDNAENTVYLQMNSLKPEDTAVYYCWDVNRDYWGQGTQVTVSS | binds
28 | 15A4 (VHH, C-term myc-His6 tag) VHH: EVQLVESGGGLVQPGGSLRLSCAASGLGIAFSRRTMAWYRQAPGKQRDWVATIAGDGSTVYADSMKGRFTISRDNAKNTVYLQINSLKPEDTAVYYCWDVNRDYWGQGTQVTVSS | binds
29 | 27D3 (VHH, C-term myc-His6 tag) VHH: EVQLMESGGGLVQPGGSLRLSCAASGLGIAFSRRTMAWYRQAPGKQRDWVATIAGDGSTVYADSMKGRFTISRDNAENTVYLQMNSLKPEDTAVYYCWDVNRDYWGQGTQVTVSS | binds
30 | 17G5 (VHH, C-term myc-His6 tag) VHH: EVQLVESGGGLVQPGGSLRLSCAASGIGIAFSSRTMAWYRQAPGKQRDWVATIGSGGTTNYADSVKGRFTISRDNAKNTVYLQMNSLKPEDTAVYYCRDINRDYWGQGTQVTVSS | binds
31 | 17F5 (VHH, C-term myc-His6 tag) VHH: EVQLVESGGGLVQPGGSLRLSCAASGLGIAFSRRTMAWYRQAPGKQRDWVATIAGDGSTVYADSMKGRFTISRDNAKNTVYLQVNSLKPEDTAVYYCWDTNGDYWGQGTQVTVSS | binds
32 | 17F7 (VHH, C-term myc-His6 tag) VHH: EVQLVESGGGLVQAGGSLRLSCVASGIAQSIRVMAWYRQPPGKQRDWVGTISSDGTANYADSVKGRFTISRDNAKKTMYLQMNSLKPDDTAVYYCRDVNRDYWGQGTQVTVSS | binds
33 | 17C2 (VHH, C-term myc-His6 tag) VHH: EVQLVESGGGLVQPGGSLRLSCAASGFAFSSYAMSWVRQAPGKGLEWVSAVDSGGGRTDYAHSVKGRFTISRDNAKNTLYLQMSSLKPEDTALYYCTKHVSDSDYTEYDYWGQGTQVTVSS | binds
34 | 17B6 (VHH, C-term myc-His6 tag) VHH: EVQLVESGGGLVQPGGSLRLSCAASRIPFSTRTMAWYRQAPGKQRDWVATIGTSGPPRYADSVKGRFTVSRDNAKNTVYLQMNSLKAEDTAVYYCWDVNADYWGQGTQVTVSS | binds
